# Positions count from the first letter of the chain named. In names and notes the source's numbering stands. No end group written: not given here.
# B1: UVRAG (228-298) (other)
# chain: TSNELKKESESLRLKILVLRNELERQKKALGREVAFLHKQQMALQDKGSAFSTEHGKLQLQKDSLSELRKE
# B2: UVRAG 6E (L232E/L239E/L246E/L250E/L264E/L271E), coiled coil domain as used in ITC (other)
# chain: B1 chain with L5E, S11C, L12E, L19E, L23E, L37E, L44E
# B3: UVRAG 2E (L246E/L250E), coiled coil domain as used in ITC (other)
# chain: B1 chain with S11C, L19E, L23E
# B4: UVRAG 5E (L232E/L239E/L246E/L250E/L264E), coiled coil domain as used in ITC (other)
# chain: B1 chain with L5E, S11C, L12E, L19E, L23E, L37E
# B5: Beclin 1 coiled coil 4 (CC4) (other)
# chain: AERLDQEEAQYQREYSEFKRQQLELDDELKSVENQMRYAQMQADKLKKTN
# notes: 7 heptad repeats of the Beclin1 coiled coil domain
# B6: FLAG-tagged full length Mus musculus UVRAG wild type (other, not shown: small tags and cut ends)
# chain: MSSCASLGGPVPLPPPGPSAALTSGAPARALHVELPSQQRRLRHLRNIAARNIVNRNGHQLLDTYFTLHLCDNEKIFKEFYRSEVIKNSLNPTWRSLDFGIMPDRLDTSVSCFVVKIWGGKEEAFQLLIEWKVYLDGLKYLGQQIHARNQNEIIFGLNDGYYGAPCEHKGHPNAQKNLLQVDQNCVRNSYDVFSLLRLHRAQCAIKQTQVTVQRLGKEIEEKLRLTSTSNELKKESECLRLKILVLRNELERQKKALGREVAFLHKQQMALQDKGSAFSTEHGKLQLQKDSLSELRKECTAKRELFLKTNAQLTIRCRQLLSELSYIYPIDLNEHKDYFVCGVKLPNSEDFQAKEDGSIAVALGYTAHLVSMISFFLQVPLRYPIIHKGSRSTIKDNINDKLTEKEREFPLYPKGGEKLQFDYGVYLLNKNIAQLRYQHGLGTPDLRQTLPNLKNFMEHGLMVRCDRHHISNAIPVPKRQSSTFGGADGGFSAGIPSPDKVHRKRASSENERLQYKTPPPSYNSALTQPGVAMPTSGDSERKVAPLSSSLDTSLDFSKENKKAGVDLGSSVSGDHGNSDSGQEQGEALPGHLAAVNGTALPSEQAGPAGTLLPGSCHPAPSAELCCAVEQAEEIIGLEATGFTSGDQLEALSCIPVDSAVAVECDEQVLGEFEEFSRRIYALSENVSSFRRPRRSSDK
# B7: FLAG-tagged full length Mus musculus UVRAG 1E (L246E) (other, not shown: small tags and cut ends)
# chain: B6 chain with L246E
# B8: FLAG-tagged full length Mus musculus UVRAG 2E (L246E/L250E) (other, not shown: small tags and cut ends)
# chain: B6 chain with L246E, L250E
# B9: Beclin 1 coiled coil 2 (CC2) (other)
# chain: EERLIQELEDVEKNRKVVAENLEKVQAEAERLDQEEAQYQREYSEFKRQ
# notes: as for B5
# B10: Coiled coil domain of UVRAG (228-276) (other)
# chain: TSNELKKESESLRLKILVLRNELERQKKALGREVAFLHKQQMALQDKG
# notes: They have S at position 238 where the full-length entries have C; also called UVRAG coiled coil domain; UVRAG coiled coil
# B11: Monomeric form of Beclin1 coiled coil domain with L182A mutation (other)
# chain: DSEQLQREAKELALEEERLIQELEDVEKNRKVVAENLEKVQAEAERLDQEEAQYQREYSEFKRQQLELDDELKSVENQMRYAQMQLDKLKKTN
# notes: The entry already carries L182A
# B12: Beclin 1 coiled coil 3 (CC3) (other)
# chain: RKVVAENLEKVQAEAERLDQEEAQYQREYSEFKRQQLELDDELKSVENQ
# notes: as for B5
# Key:
# [1] = biological target: B11; assay: ITC
# [2] = biological target: T1, Beclin1 coiled coil domain (wild type) (rat, UniProt Q91XJ1 174-266); assay: isothermal titration calorimetry, wild type Beclin1 coiled coil domain and UVRAG (228-298)
# T1 construct: residues 175-266; it pairs 1:1 with UVRAG; also called CC; entire Beclin1 coiled coil domain
# Target sequence in this assay (Q91XJ1 174-266 limits assumed): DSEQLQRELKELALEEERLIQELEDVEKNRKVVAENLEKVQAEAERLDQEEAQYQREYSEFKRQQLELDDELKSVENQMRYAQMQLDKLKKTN
# [3] = biological target: T1, Beclin1 coiled coil domain (wild type); assay: ITC
# [4] = biological target: B10; assay: isothermal titration calorimetry, Beclin 1 construct against UVRAG coiled coil domain
# endogenous Beclin1 = endogenous Beclin1 (UniProt Q14457 1-450); assay: cell-based or functional assay
# [5] = biological target: T1, Beclin1 coiled coil domain (wild type); assay: ITC; remark: listed apart in the source
# UVRAG (228-298) = biological target: B1; assay: isothermal titration calorimetry, monomeric Beclin1 coiled coil domain (L182A) and UVRAG (228-298)
# Sequence of endogenous Beclin1 (Q14457 whole entry, the tested form may be a part): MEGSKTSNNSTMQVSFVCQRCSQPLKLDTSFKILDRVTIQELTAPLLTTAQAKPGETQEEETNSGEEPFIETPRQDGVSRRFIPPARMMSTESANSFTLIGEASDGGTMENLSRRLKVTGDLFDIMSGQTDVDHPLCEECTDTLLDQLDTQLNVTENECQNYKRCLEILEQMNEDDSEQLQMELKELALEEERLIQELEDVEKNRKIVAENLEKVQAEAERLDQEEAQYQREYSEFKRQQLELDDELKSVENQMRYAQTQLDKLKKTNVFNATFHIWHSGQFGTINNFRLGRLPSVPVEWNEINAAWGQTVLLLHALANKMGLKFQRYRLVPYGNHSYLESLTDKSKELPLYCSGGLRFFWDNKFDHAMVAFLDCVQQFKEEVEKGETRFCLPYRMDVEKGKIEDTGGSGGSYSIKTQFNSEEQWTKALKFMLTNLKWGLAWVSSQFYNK
binder,measurement,setting,value
B1,binding result,[1],binds
same,Kd,[2],~0.24 µM
B2,binding result,[3],no binding
B3,binding result,[3],no binding
B4,binding result,[3],no binding
B5,Kd,[4],157 µM
B6,EGFR remaining after 5 hours in A549 cells,endogenous Beclin1,< 10%
same,half-life of EGFR in A549 cells,endogenous Beclin1,~2 h
B7,EGFR remaining after 5 hours in A549 cells,endogenous Beclin1,< 10%
same,half-life of EGFR in A549 cells,endogenous Beclin1,~2 h
B8,EGFR remaining after 5 hours in A549 cells,endogenous Beclin1,~5%
B9,Kd,[4],139 µM
B10,Kd,[5],~0.24 µM
B11,Kd,UVRAG (228-298),~0.07 µM
B12,Kd,[4],671 µM
"DSEQAQRELKELALEEERLIQELEDVEKNRKVVAENLEKVQAEAERLDQE (other, not fully specified) [Beclin 1 coiled coil 1 (CC1), residues 174-223]",Kd,[4],8.9 µM

# From patent US20180002381A1 (HONG KONG POLYTECHNIC UNIVERSITY, published 2018)
